Results published in publication PMC10307831, “GATA zinc finger protein p66β promotes breast cancer cell migration by acting as a co-activator of Snail”.

Tests used:
Flag-p66β [1] = biological target: T1, Flag-p66β (UniProt Q8WXI9 1-593); assay: pull-down; p66β alone; relatively high affinity; EMSA: 10 mM Tris pH 7.5, 50 mM KCl, 1 mM DTT, 5 mM MgCl2, 2.5% glycerol, 0.05% NP-40, 50 ng/ul poly(dI.dC), 600 fmol probe, 12 ug GST protein in 20 ul; gel 6% 0.5x TBE 4 C. Pull-down: NeutrAvidin beads, 8 h 4 C, washed in IP buffer (50 mM Tris pH 7.5, 150 mM NaCl, 1% Triton X-100); conditions: protein: recombinant; tags: Flag; label: biotin (probe); blunt
T1 sequence (Q8WXI9 whole entry): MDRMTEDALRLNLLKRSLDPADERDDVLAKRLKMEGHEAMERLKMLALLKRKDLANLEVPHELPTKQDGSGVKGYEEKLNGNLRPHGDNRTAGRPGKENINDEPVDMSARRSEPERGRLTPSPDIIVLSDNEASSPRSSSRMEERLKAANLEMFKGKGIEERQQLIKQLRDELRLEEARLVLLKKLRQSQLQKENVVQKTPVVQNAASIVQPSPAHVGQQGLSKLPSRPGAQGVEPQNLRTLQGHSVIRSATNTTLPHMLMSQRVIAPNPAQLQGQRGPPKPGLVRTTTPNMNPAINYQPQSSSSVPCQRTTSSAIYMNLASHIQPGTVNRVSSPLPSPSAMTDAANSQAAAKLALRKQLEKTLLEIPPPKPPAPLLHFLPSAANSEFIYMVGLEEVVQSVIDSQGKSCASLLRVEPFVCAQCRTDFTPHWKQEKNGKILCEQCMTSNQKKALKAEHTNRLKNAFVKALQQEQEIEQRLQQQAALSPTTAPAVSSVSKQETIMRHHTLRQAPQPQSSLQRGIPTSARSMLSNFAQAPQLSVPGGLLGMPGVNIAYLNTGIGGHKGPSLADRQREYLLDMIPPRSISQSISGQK

GST-Snail [2] = biological target: T2, GST-Snail (UniProt O95863 1-264); assay: EMSA; 5 mM Mg2+, poly(dI.dC); EMSA: 10 mM Tris pH 7.5, 50 mM KCl, 1 mM DTT, 5 mM MgCl2, 2.5% glycerol, 0.05% NP-40, 50 ng/ul poly(dI.dC), 600 fmol probe, 12 ug GST protein in 20 ul; gel 6% 0.5x TBE 4 C. Pull-down: NeutrAvidin beads, 8 h 4 C, washed in IP buffer (50 mM Tris pH 7.5, 150 mM NaCl, 1% Triton X-100); conditions: protein: recombinant; tags: N-terminal GST (pGEX-4T-1); label: biotin (probe); blunt
T2 sequence (O95863 whole entry): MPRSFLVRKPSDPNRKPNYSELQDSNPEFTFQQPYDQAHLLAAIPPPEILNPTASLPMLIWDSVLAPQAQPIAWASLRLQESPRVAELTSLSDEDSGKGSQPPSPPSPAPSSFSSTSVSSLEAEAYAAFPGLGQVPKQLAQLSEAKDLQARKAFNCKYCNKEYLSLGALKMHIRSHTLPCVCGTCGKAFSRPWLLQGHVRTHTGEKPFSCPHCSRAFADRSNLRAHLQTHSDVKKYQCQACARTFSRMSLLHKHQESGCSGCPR

GST-Snail [3] = biological target: T2, GST-Snail; assay: competition; unlabeled mutant vs biotinylated WT probe; EMSA: 10 mM Tris pH 7.5, 50 mM KCl, 1 mM DTT, 5 mM MgCl2, 2.5% glycerol, 0.05% NP-40, 50 ng/ul poly(dI.dC), 600 fmol probe, 12 ug GST protein in 20 ul; gel 6% 0.5x TBE 4 C. Pull-down: NeutrAvidin beads, 8 h 4 C, washed in IP buffer (50 mM Tris pH 7.5, 150 mM NaCl, 1% Triton X-100); conditions: protein: recombinant; tags: N-terminal GST (pGEX-4T-1); 3' overhang 1 nt on strand 1 as printed (reverse strand lacks 5' C)
Flag-p66β [4] = biological target: T1, Flag-p66β; assay: as above; conditions: protein: recombinant; tags: Flag; 3' overhang 1 nt on strand 1 as printed (reverse strand lacks 5' C)

B1: COL6A2-G-box-WT (dsDNA)
DNA 1: GGCCCCCTCCTCCCATCCGCG
DNA 2: CGCGGATGGGAGGAGGGGGCC
B1: binds (Flag-p66β [1]); binds (GST-Snail [2]).

B2: COL6A2-G-box-MT (dsDNA)
DNA 1: GGCCCCCTAATAATATCCGCG
DNA 2: GCGGATATTATTAGGGGGCC
B2: no binding (GST-Snail [3]); no binding (Flag-p66β [4]).
